# According to PMC11633098:
# Experiments:
# human plasmin (human) [1] = assay: ELISA; inhibition assay: Plg or Pln coated at 0.5 µg/well; 100 nM rSesY with 0 to 10 mM tranexamic acid or arginine; anti-His HRP detection; RT, 1 h
# [2] = biological target: human plasminogen (human) (UniProt P00747); assay: as above
# human plasmin (human) [3] = assay: ELISA; solid-phase binding: Plg, Pln or BSA immobilised on 4HBX plates; increasing concentrations (1 nM to 4 µM) of recombinant protein; anti-His HRP detection; one-site specific binding fit; apparent KD
# [4] = biological target: human plasminogen (human) (UniProt P00747); assay: as above
# human plasmin (human) [5] = biological target: human plasmin (human)
# human plasmin (human) [6] = biological target: human plasmin (human); remark: listed apart in the source
# UniProt P00747, sequence (P00747 20-810): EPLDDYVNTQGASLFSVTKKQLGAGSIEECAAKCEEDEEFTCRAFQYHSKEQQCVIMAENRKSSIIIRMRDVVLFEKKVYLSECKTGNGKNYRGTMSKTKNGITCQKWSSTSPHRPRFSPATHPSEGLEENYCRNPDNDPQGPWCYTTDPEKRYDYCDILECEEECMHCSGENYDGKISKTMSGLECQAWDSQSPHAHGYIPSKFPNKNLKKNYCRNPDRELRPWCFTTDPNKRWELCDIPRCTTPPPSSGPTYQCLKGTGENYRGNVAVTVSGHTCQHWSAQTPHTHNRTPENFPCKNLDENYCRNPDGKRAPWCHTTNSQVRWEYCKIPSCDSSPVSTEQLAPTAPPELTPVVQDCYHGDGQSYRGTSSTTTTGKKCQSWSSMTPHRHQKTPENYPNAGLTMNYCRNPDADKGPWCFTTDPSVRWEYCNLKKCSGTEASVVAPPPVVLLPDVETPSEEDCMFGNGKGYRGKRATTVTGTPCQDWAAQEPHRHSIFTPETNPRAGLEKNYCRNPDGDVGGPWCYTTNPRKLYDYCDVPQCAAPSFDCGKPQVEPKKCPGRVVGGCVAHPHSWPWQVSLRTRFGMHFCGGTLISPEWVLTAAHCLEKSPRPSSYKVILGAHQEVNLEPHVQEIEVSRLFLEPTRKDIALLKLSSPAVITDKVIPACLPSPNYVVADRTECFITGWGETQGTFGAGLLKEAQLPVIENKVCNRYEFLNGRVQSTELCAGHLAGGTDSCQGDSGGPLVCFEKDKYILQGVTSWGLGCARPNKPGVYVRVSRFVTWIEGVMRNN
substance,measurement,setting,value
recombinant SesY_(32–341) (S. epidermidis surface protein Y) (domain or fragment),percent reduction of binding by 2 mM tranexamic acid,human plasmin (human) [1],> 85%
same,percent reduction of binding by 2 mM tranexamic acid,[2],> 85%
same,Kd,human plasmin (human) [3],16 nM
same,Kd,[4],210 nM
same,Vmax of Pln on S-2251 without and with rSesY (0 to 10 µM),human plasmin (human) [5],1.8 nM/min
same,"fibrin gel remaining at 6 h and 12 h after digestion of pre-formed fibrin gel by Pln with 1, 2.5, 5 and 10 µM rSesY (38% to over 80%)",human plasmin (human) [6],> 80%
same,fibrin gel remaining at 12 h after digestion of pre-formed fibrin gel by Pln with 5 µM rSesY (controls 10%–25%),human plasmin (human) [6],80%
recombinant fibronectin-binding protein B N2N3 domain from S. aureus (from UniProt A0A0H2XKG3 37-940) (domain or fragment),Kd,[4],30 nM
